US5001064A, “Phosphatidylinositol 4-kinase” (Washington University, priority 1988, dated 1991)

Substrate: Nc1ncnc2c1ncn2[C@@H]1O[C@H](COP(=O)(O)OP(=O)(O)OP(=O)(O)O)[C@@H](O)[C@H]1O
Experiment: PtdIns 4-kinase activity assay: kinetic parameters, specific activity, pH optimum
Format: biochemical, bovine
Details: other: purified enzyme, pH 7.4 (Tris-HCl), double-reciprocal plot, 30.0 °C
Method: PtdIns 4-kinase activity was assayed in 60 μl at 30° C. in 20 mM BisTris-HCl (pH 7.0), 10 mM MgCl2, 1.0% Triton X-100, 0.25 mg/ml phosphatidylinositol, and 150 μM ATP (1.25 μCi[-^32 P]ATP), unless otherwise noted. The reaction was terminated by the addition of 12 μl of cold HCl, 120 μl of cold methanol, 150 μl of chloroform, and 40 μl of H2 O. The extracted samples were centrifuged at 12,000 × g for 1 min. and the aqueous layer removed and discarded. When needed, the organic phase was washed with 40 μl of cold methanol and 40 μl of cold 1.0 N HCl, centrifuged at 12,000 × g, and the aqueous layer was removed. The organic phase was then dried under vacuum in a Savant speed-vac, resuspended in 40 μl of chloroform/methanol (2:1), and chromatographed on potassium oxalate-impregnated Silica Gel 60 thin layer chromatography plates (TLC). The solvent system used consisted of chloroform/methanol/ammonium hydroxide/water (51:39.6:3:8.4). […] The reaction product, phosphatidylinositol 4-phosphate, was visualized by autoradiography, and the corresponding area of the TLC plate was scraped and quantitated by Cherenkov counting. […]
In order to optimize the assay of this enzyme, the pH optimum for Ptdlns 4-kinase was determined. […]

B1: PtdIns 4-kinase (Bos taurus) (protein)
chain: MDETSPLVSPERAQPPDYTFPSGSSAHFPQVPGGAVRVAAAAGPVSSPPGSPGHDRERQPLLDRARGAAAQGQTQTVAAQAQALAAQAAAAAHAAQAHRERNEFPEDPEFEAVVRQAELAIERGIFPERIYQGSSGSYFVKDPQGKIIAVFKPKNEEPYGQLNPKWTKWLQKLCCPCCFGRDCLVLNQGYLSEAGASLVDQKLELNIVPRTKVVYLASETFNYSAIDRVKSRGKRLALEKVPKVGQRFNRIGLPPKVGSFQLFVESYKDADYWLRRFEAEPLPENTNRQLLLQFERLVVLDYIIRNTDRGNDNWLIKYDCPMDSSNSRDTDWVVVKEPVIKVAAIDNGLAFPLKHPDSWRAYPFYWAWLPQAKVPFSQEIKDLILPKISDPNFVKDLEEDLYELFKKDPGFDRGQFHKQIAVMRGQILNLTQALKDNKCPLHLVQMPPVIVETARSHQRSSSESYTQSFQSRKPFFSWW
notes: It constitutes the major PtdIns 4-kinase activity of bovine uteri; from tissue; host or cells: bovine uterus (acetone powder, purified over ammonium sulfate, Mono Q, S-Sepharose, Mono Q, Mono P and hydroxylapatite)
- Km: 18 µM
